Some results are limits rather than exact numbers.

Among the data in US20200087363A1 (IMMATICS BIOTECHNOLOGIES, published 2020) are peptide exchange yield values, retold here.

The target of the test is T1, HLA-B*44:05 (human).
T1 construct: also called peptide-receptive MHC class I molecule
Description: UV peptide exchange, anti-b2m ELISA. In short, it runs like this: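 Peptide-receptive HLA-B*44:05 monomers after UV-induced exchange were diluted 100-fold and captured on streptavidin-coated plates for 1 h at 37 °C. Bound complexes were detected with 2 µg/ml HRP-anti-β2m (1 h, 37 °C) and TMB, read at 450 nm. β2m signal reflects peptide-stabilized complex yield.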
(In general: An ELISA detects its analyte on a solid surface through an enzyme-linked reagent.)

B1: TEAVLNRY (peptide)
peptide: TEAVLNRY
Molecule B1 came in with a peptide exchange yield of 20 to 50%.

B2: NEVKEIKGY (peptide)
peptide: NEVKEIKGY
Consider B2, for which the peptide exchange yield is 50 to 75%.

B3: AEMKFYVVI (peptide)
peptide: AEMKFYVVI
As for B3, the peptide exchange yield fell in the range of 50 to 75%.

B4: LEQASRIWSW (peptide)
peptide: LEQASRIWSW
Molecule B4 gave a peptide exchange yield greater than 75%.

B5: HELESENKKW (peptide)
peptide: HELESENKKW
With B5, the peptide exchange yield lay in the range of 50 to 75%.

B6: DEIRVFGY (peptide)
peptide: DEIRVFGY
Take B6: the peptide exchange yield lay in the range of 20 to 50%.

B7: VEVIPEGAML (peptide)
peptide: VEVIPEGAML
Turning to B7, the peptide exchange yield was in the range of 50 to 75%.

B8: LENPHVQSV (peptide)
peptide: LENPHVQSV
In the case of B8, the peptide exchange yield was 50 to 75%.

B9: SEVLLTSISTF (peptide)
peptide: SEVLLTSISTF
B9: the peptide exchange yield was greater than 75%.

B10: AEYQAAILHL (peptide)
peptide: AEYQAAILHL
As to B10, the peptide exchange yield lay in the range of 50 to 75%.

B11: RELVHMINW (peptide)
peptide: RELVHMINW
B11 registered a peptide exchange yield greater than 75%.

B12: EEGRVYVY (peptide)
peptide: EEGRVYVY
In turn, B12 came in with a peptide exchange yield of 20 to 50%.

B13: LEWQHPSSW (peptide)
peptide: LEWQHPSSW
B13 gave a peptide exchange yield greater than 75%.

B14: IEQGRVVLW (peptide)
peptide: IEQGRVVLW
B14 displayed a peptide exchange yield greater than 75%.

B15: QEVNISLHY (peptide)
peptide: QEVNISLHY
Regarding B15, the peptide exchange yield was greater than 75%.

B16: SENKKWVEF (peptide)
peptide: SENKKWVEF
For B16, the peptide exchange yield is 20 to 50%.

B17: SETPTLQGL (peptide)
peptide: SETPTLQGL
Regarding B17, the peptide exchange yield was 50 to 75%.

B18: EEIENLQAQF (peptide)
peptide: EEIENLQAQF
Molecule B18 showed a peptide exchange yield of 20 to 50%.

B19: SETSTGTSV (peptide)
peptide: SETSTGTSV
In turn, B19 gave a peptide exchange yield of 20 to 50%.

B20: AETEEGIYW (peptide)
peptide: AETEEGIYW
Regarding B20, the peptide exchange yield was greater than 75%.

B21: LEWQNSSSM (peptide)
peptide: LEWQNSSSM
For B21, the peptide exchange yield was 50 to 75%.

B22: GELAPSHGL (peptide)
peptide: GELAPSHGL
As for B22, the peptide exchange yield lay in the range of 50 to 75%.

B23: TEIMEKTTL (peptide)
peptide: TEIMEKTTL
Molecule B23 had a peptide exchange yield of 50 to 75%.

B24: AELMDKPLTF (peptide)
peptide: AELMDKPLTF
Take B24: the peptide exchange yield is 50 to 75%.

B25: SEFDLEQVW (peptide)
peptide: SEFDLEQVW
B25 returned a peptide exchange yield greater than 75%.

B26: QEDELVKIRKY (peptide)
peptide: QEDELVKIRKY
As to B26, the peptide exchange yield lay in the range of 50 to 75%.

B27: EEMLENVSL (peptide)
peptide: EEMLENVSL
Molecule B27 had a peptide exchange yield of 50 to 75%.
